Test results as given in patent publication US20190367592A1 (AC IMMUNE, published 2019).
Positions count from the first letter of the chain named. Each block holds one binder with its values, some of them ahead of it.

Key:
[1] = target: T1, recombinant human Tau monomer, 2N4R isoform (amino acids 2-441) (human, UniProt P10636-8 2-441); assay: SPR, captured IgG, Tau monomer analyte, 1:1 model; fit-quality column: Yes
T1 construct: range 2-441; N-terminal His-tag removed with TEV protease; also called monomeric Tau
T1 sequence (P10636 other isoform, or with tags, fused parts or gaps limits assumed): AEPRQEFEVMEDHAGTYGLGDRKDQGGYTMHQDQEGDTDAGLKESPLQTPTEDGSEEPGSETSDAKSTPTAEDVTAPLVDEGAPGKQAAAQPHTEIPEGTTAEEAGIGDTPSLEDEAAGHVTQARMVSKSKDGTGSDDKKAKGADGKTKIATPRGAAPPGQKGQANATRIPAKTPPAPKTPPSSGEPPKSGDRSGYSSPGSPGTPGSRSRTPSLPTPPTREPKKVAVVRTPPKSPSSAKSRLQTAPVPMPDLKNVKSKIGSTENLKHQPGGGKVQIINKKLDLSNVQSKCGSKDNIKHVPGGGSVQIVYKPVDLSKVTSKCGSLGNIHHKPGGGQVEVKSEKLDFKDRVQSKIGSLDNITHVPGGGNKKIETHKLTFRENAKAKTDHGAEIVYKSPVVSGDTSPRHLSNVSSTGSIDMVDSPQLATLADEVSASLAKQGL
Procedure: (§1) Briefly, IgGs in 1 mL culuture were captured using tip columns that were custom packed with 20 μL MabSelect SuRe resin (Glygen Corp & GE Healthcare). After washing with 1×PBS pH 7.4, IgGs were eluted into 160 μL of 50 mM phosphoric acid pH 3 and neutralized with 12 μL of 20×PBS pH 11. MabSelect SuRe tip columns were stripped in 0.1 M NaOH and regenerated with 1×PBS pH 7.4 for consecutive use of up to 15 times. Purified antibodies in 96-well format were normalized to 0.1 mg/ml using a Hamilton Star liquid handling robot. The “pre-stress” samples were kept at approximately 4° C. and the “post-stress” samples were incubated at 40° C. for two weeks in a PCR machine. Functional stability of the variants was compared by running surface plasmon resonance kinetics experiments with the “pre-stress” and “post-stress” antibody preps. The antibodies were assessed using a human antibody capture CM5 Series S chip generated using the GE Biacore human IgG capture kit and a Biacore T200 instrument. Antibodies diluted to 2 μg/ml were immobilized using a 15 second injection time and 10 μl/min flow rate. Binding to Tau monomer at 0 nM, 26.5 nM and 265 nM, at 25° C., using a flow rate of 40 μl/min, was monitored for a 180 second association phase followed by a 300 second dissociation phase. Samples were run in 10 mM HEPES pH7.4, 150 mM NaCl, 0.05% Tween 20 (HBSP) using a multi-cycle kinetics format. Data was analyzed using BIAevaluation software, fitting a 1:1 binding model. The resulting affinity (KD) values are shown in FIG. 8A-D. A Stability Index was also calculated, using the rationale that affinity-compromised antibodies (due for example to deamidation of key residues) are expected to contribute equally to the IgG capture level (“Ligand Level”) but to contribute less to the measured Tau binding, and that this would be reflected in the experimentally derived value for Rmax. To account for variations in the amount of each antibody captured, Rmax was normalized for the antibody capture level (as measured by “Ligand Level”, Response Units immobilized during antibody capture). Thus Normalized Rmax is calculated as the experimental Rmax (units=RU) divided by the “Ligand Level” (Evaluation output representing the RU captured during the hIgG capture step, units=RU), and Stability Index is calculated here as Normalized Rmax (post-stress) divided by Normalized Rmax (pre-stress).

[2] = target: T1, recombinant human Tau monomer, 2N4R …; assay: SPR; Normalized Rmax post-stress (2 weeks 40 C) / pre-stress
Procedure: as §1

B1: hu37D3.v28.E2 (antibody, V domains shown)
VH: EVQLVESGGGLVQPGGSLRLSCAASGLIFRSYGMSWVRQAPGKGLEWVATINSGGTYTYYPDSVKGRFTISRDNSKNTLYLQMNSLRAEDTAVYYCANSYSGAMDYWGQGTLVTVSS
VL: DDVLTQTPLSLPVTPGQPASISCRSSQSIVQSNGNTYFEWYLQKPGQSPQLLIYKVSNRFSGVPDRFSGSGSGTDFTLKISRVEAEDVGVYYCFQGSLVPWTFGQGTKVEIK
Kd [1]: 22.5 nM
Stability Index [2]: 28%

B2: hu37D3.v28.A26 (antibody, V domains shown)
VH: B1 VH
VL: B1 VL with D2V, L4M, Q31H, L98H
Kd [1]: 22.5 nM
Stability Index [2]: 78%

B3: hu37D3.v28.A10 (antibody, V domains shown)
VH: B1 VH
VL: B1 VL with L4M, Q31H, L98H
Kd [1]: 41.8 nM
Stability Index [2]: 37%

B4: hu37D3-H9.v30.5 (antibody, V domains shown)
VH: B1 VH
VL: B1 VL with Q31H, N33I
Kd [1]: 29.1 nM
Stability Index [2]: 80%

B7: hu37D3.v28.A20 (antibody, V domains shown)
VH: B1 VH
VL: B1 VL with D2V, Q31H, F38L
Kd [1]: 7.1 nM
Stability Index [2]: 93%

B8: hu37D3.v28.A18 (antibody, V domains shown)
VH: B1 VH
VL: B1 VL with D2V, Q31H, L98H
Kd [1]: 17.3 nM
Stability Index [2]: 83%

B9: hu37D3.v28.A22 (antibody, V domains shown)
VH: B1 VH
VL: B1 VL with D2V, Q31H, F38L, L98H
Kd [1]: 27.8 nM
Stability Index [2]: 70%

B10: hu37D3.v28.A28 (antibody, V domains shown)
VH: B1 VH
VL: B1 VL with D2V, L4M, Q31H, F38L
Kd [1]: 11.4 nM
Stability Index [2]: 89%

B12: hu37D3.v28.A14 (antibody, V domains shown)
VH: B1 VH
VL: B1 VL with L4M, Q31H, F38L, L98H
Kd [1]: 51.4 nM
Stability Index [2]: 70%

B13: hu37D3.v29.13 (antibody, V domains shown)
VH: B1 VH
VL: B1 VL with D1E, Q31H, G34A, N35K
Kd [1]: 6.7 nM
Stability Index [2]: 79%

B15: hu37D3.v29.10 (antibody, V domains shown)
VH: B1 VH
VL: B1 VL with D1E, Q31H, G34A, N35E
Kd [1]: 17.4 nM
Stability Index [2]: 100%

B16: hu37D3-H9.v30.11 (antibody, V domains shown)
VH: B1 VH
VL: B1 VL with Q31H, N33R
Kd [1]: 20.9 nM
Stability Index [2]: 86%

B17: hu37D3.v29.11 (antibody, V domains shown)
VH: B1 VH
VL: B1 VL with D1E, Q31H, G34A, N35A
Kd [1]: 27.9 nM
Stability Index [2]: 67%

B18: hu37D3.v29.3 (antibody, V domains shown)
VH: B1 VH
VL: B1 VL with D1E, Q31H, N35E
Kd [1]: 5.6 nM
Stability Index [2]: 93%

B19: hu37D3.v28.F3 (antibody, V domains shown)
VH: B1 VH
VL: B1 VL with Q31H, S32T, G34A
Kd [1]: 9.5 nM
Stability Index [2]: 70%

B21: hu37D3-H9.v30.10 (antibody, V domains shown)
VH: B1 VH
VL: B1 VL with Q31H, N33K
Kd [1]: 16.1 nM
Stability Index [2]: 84%

B23: hu37D3.v29.12 (antibody, V domains shown)
VH: B1 VH
VL: B1 VL with D1E, Q31H, G34A, N35H
Kd [1]: 7 nM
Stability Index [2]: 50%

B25: hu37D3.v29.9 (antibody, V domains shown)
VH: B1 VH
VL: B1 VL with D1E, Q31H, G34A, N35Q
Kd [1]: 7.3 nM
Stability Index [2]: 86%

B27: hu37D3.v29.1 (antibody, V domains shown)
VH: B1 VH
VL: B1 VL with D1E, Q31H, N35D
Kd [1]: 13.5 nM
Stability Index [2]: 70%

B29: hu37D3.v29.14 (antibody, V domains shown)
VH: B1 VH
VL: B1 VL with D1E, Q31H, G34A, N35L
Kd [1]: 22 nM
Stability Index [2]: 92%

The next binders have a lower Kd [1] than those just listed; values first:

Kd [1]: 4.7 nM
Stability Index [2]: 95%
B5: hu37D3.v28.A24 (antibody, V domains shown)
VH: B1 VH
VL: B1 VL with D2V, L4M, Q31H

Kd [1]: 3.9 nM
Stability Index [2]: 89%
B6: hu37D3.v28.A16 (antibody, V domains shown)
VH: B1 VH
VL: B1 VL with D2V, Q31H

Kd [1]: 1.8 nM
Stability Index [2]: 57%
B11: hu37D3.v28.A8 (antibody, V domains shown)
VH: B1 VH
VL: B1 VL with L4M, Q31H

Kd [1]: 4.9 nM
Stability Index [2]: 76%
B14: hu37D3.v29.4 (antibody, V domains shown)
VH: B1 VH
VL: B1 VL with D1E, Q31H, N35A

Kd [1]: 1.9 nM
Stability Index [2]: 51%
B20: hu37D3.v28.F2 (antibody, V domains shown)
VH: B1 VH
VL: B1 VL with Q31H, S32T

Kd [1]: 4 nM
Stability Index [2]: 72%
B22: hu37D3-H9.v5.1 (antibody, V domains shown)
VH: B1 VH
VL: B1 VL with D1E, Q31H, G34A

Kd [1]: 1.4 nM
Stability Index [2]: 64%
B24: hu37D3.v29.5 (antibody, V domains shown)
VH: B1 VH
VL: B1 VL with D1E, Q31H, N35H

Kd [1]: 1.4 nM
Stability Index [2]: 62%
B26: hu37D3.v29.6 (antibody, V domains shown)
VH: B1 VH
VL: B1 VL with D1E, Q31H, N35K

Kd [1]: 4.6 nM
Stability Index [2]: 90%
B28: hu37D3.v29.7 (antibody, V domains shown)
VH: B1 VH
VL: B1 VL with D1E, Q31H, N35L
